The values below come from article PMC4604457.

One may read the EC50 as the concentration that produces a half-maximal response.

For assay [1], the target named is N-MBP-ORF3-A647 (not stated | Hepatitis E virus genotype 1) (UniProt O90299). Kind of assay: MST.
The target is the same in assay [2]. Description: MST; pH 7.
For assay [3] the target is unchanged. Kind of assay: MST; as a7 but at pH 6.0 (pH series), 30 °C.
Assay [4] has the same target. Description: MST; as a7 but at pH 8.0 (pH series), 30 °C.
For assay [5] the target is unchanged. Kind of assay: MST; as a7 but at 35 °C (temperature series), pH 7.
Assay [6] shares this target. Kind of assay: MST; as a7 but at 37 °C (temperature series), pH 7.
For assay [7] the target is unchanged. Kind of assay: MST; as a7 but at 41 °C (temperature series), pH 7.

As to N-MBP-Pvx (domain or fragment), in assay [1], the EC50 amounted to 1.6 nM.

The substance N-MBP-X (domain or fragment) had a concentration giving a half-maximal response (EC50) in assay [1] of 5.6 nM. This EC50 is about 3.5-fold higher than that of the substance before.

N-MBP-Hel (domain or fragment) returned a 50% effective concentration (EC50) in assay [1] of 87.9 nM. This EC50 is about 16-fold higher than that of the substance before.

N-MBP-Plp (domain or fragment): the EC50 in assay [1] turned out to be 0.3 nM; in assay [2], 1.5 nM; in assay [3] it was 19 nM; in assay [4] it was 6 nM; in assay [5], 2.8 nM; in assay [6], 16 nM. For the same substance, the EC50 in assay [7] was found to be 19 nM.

In the case of N-MBP-Met (domain or fragment), the EC50 in assay [1] is 33.7 nM.
